Assays:
IL31 Receptor A (IL31RA) = target: T1, IL31 Receptor A (IL31RA) (Mus musculus, UniProt Q8K5B1); assay: In vivo skin labelling after intradermal injection; conditions: wildtype mice; intradermal injection into back skin
T1 construct: from tissue; host or cells: mouse back skin (nape of the neck), in vivo
T1 sequence (Q8K5B1 19-716): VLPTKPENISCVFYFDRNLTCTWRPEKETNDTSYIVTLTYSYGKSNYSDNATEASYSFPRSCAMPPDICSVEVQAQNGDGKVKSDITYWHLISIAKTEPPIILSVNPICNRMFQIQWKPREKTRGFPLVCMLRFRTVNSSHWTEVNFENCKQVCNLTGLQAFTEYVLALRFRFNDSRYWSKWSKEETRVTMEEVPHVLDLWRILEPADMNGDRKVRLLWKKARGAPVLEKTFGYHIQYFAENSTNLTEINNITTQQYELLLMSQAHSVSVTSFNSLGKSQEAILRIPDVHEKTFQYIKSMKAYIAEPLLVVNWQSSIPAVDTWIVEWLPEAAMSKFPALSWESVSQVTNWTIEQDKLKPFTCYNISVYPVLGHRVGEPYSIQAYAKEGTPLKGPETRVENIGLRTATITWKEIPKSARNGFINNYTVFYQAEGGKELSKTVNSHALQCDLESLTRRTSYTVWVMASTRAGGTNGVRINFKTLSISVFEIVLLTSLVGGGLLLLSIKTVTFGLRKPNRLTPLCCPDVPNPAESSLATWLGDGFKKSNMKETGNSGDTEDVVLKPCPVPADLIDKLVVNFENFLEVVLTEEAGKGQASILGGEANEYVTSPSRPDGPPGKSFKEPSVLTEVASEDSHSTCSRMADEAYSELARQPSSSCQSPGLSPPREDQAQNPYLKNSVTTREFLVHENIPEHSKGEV
T1 sequence (O70458 24-971 partner): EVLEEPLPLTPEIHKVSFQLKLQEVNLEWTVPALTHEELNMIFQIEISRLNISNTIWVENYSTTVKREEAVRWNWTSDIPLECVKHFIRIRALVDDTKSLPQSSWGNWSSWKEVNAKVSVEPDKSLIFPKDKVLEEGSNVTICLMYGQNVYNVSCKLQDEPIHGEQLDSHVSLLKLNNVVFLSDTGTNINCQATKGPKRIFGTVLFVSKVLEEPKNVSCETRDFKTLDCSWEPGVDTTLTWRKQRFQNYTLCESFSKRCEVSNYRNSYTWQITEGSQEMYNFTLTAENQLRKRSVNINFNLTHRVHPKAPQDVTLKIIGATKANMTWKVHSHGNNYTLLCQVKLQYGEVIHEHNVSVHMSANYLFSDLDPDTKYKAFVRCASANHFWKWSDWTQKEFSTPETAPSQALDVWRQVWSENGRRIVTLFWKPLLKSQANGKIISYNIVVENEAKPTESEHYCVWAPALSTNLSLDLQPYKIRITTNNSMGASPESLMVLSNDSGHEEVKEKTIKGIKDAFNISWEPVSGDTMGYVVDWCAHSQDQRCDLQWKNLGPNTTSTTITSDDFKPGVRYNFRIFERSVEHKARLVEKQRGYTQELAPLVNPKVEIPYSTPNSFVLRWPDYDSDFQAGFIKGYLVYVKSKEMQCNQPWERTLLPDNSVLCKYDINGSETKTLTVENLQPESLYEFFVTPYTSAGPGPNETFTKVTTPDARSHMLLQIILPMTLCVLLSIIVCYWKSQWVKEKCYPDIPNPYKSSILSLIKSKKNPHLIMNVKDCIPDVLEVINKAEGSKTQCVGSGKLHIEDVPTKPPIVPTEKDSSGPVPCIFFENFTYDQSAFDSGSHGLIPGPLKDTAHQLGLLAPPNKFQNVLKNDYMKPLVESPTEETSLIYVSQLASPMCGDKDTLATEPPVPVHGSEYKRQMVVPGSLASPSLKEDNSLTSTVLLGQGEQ
Excerpt: The inventors produced recombinant IL31 with a C-terminal fusion of SNAP (IL31^SNAP) in E. Coli. […] To determine whether IL31^SNAP was functional the inventors first performed binding studies in primary keratinocyte cultures. IL31^SNAP was labelled in vitro with BG-Surface549 and applied to keratinocytes from wildtype or IL31 Receptor A (IL31RA) knockout mice (IL31RA^−/−). […] The inventors further examined IL31^SNAP labelling in vivo by injecting IL31^SNAP-Surface549 intradermally into the back skin of wild type and IL31RA^−/− mice. […] Finally, the inventors determined whether IL31^SNAP was active by quantifying scratching behavior in mice upon intradermal injection. […] Thus the IL31^SNAP retains the functional properties of native IL31.
For skin labelling, intradermal injection of 5 μM IL31^SNAP coupled with 5 μM BG549surf was performed in the nape of the neck. After […] (30 min) skin was collected, fix in PFA 4% overnight, OCT-embedded and cryo-sectioned (25 μm).

[1] = system: acute itch evoked by IL31, histamine, chloroquine or LY344864; assay: Pruritogen evoked scratching after photoablation; type: in vivo, mouse
Protocol: To characterize IL31^K138A-SNAP mediated photoablation in vivo, the inventors first tested its efficacy at alleviating IL31 provoked itch. Mice were treated for three consecutively days with IL31^K138A-SNAP-IR700 and the skin was illuminated with near-IR light. Strikingly, IL31-induced scratching behavior was abolished in these animals (FIG. 2f), and this persisted throughout an 8 week observation period (Supplementary FIG. 2l). […] The inventors next tested the effects of photoablation on scratching provoked by other acutely applied pruritogens. […] Finally, to assess the specificity of photoablation to itch sensation, the inventors examined other sensory modalities after treatment.

thermal sensitivity = assay: Hot plate test after photoablation in the hind paw; type: in vivo, mouse
Protocol: Mice were injected for three consecutive days with […] coupled with BG-IR700 with or without near IR light illumination. 3 days after the last injection, mice were placed on top of a hot plate (Ugo Basile #35150) that was preset to 52° C. and the latency to response as distinguished by flicking or licking of the hind paw was observed. In order to avoid injury to the mice, a cutoff of 30 seconds was set.

mechanical sensitivity = assay: Von Frey test after photoablation in the hind paw; type: in vivo, mouse
Protocol: Mice were habituated on an elevated platform with a mesh floor for 30 minutes. The plantar side of the hind paw was stimulated with calibrated von-Frey filaments (North coast medical #NC12775-99) to assess baseline levels of mechanical sensitivity. The stimulation was then repeated at the 3rd day after the last photoablation performed on the same paw considered for the baseline. As a control group, the animals were injected but not illuminated. The 50% paw withdrawal thresholds were calculated using the Up-Down method (26).

IL31RA expressing cells = assay: Cell type specificity of photo-ablation in skin; type: in vivo
[2] = system: Calcipotriol model of atopic dermatitis; assay: Calcipotriol model of atopic dermatitis
primary keratinocytes = assay: In-vitro photo-ablation of primary keratinocytes (propidium iodide staining); type: cell-based, mouse; conditions: near infra-red light, 24 hours after
Protocol: 1 μM IL31^SNAP and 3 μM BG-IR700 were coupled for 1 hour at 37° C. The coupling reaction was applied for 10 minutes at 37° C. on primary wild type and IL31RA^−/− keratinocytes. Cells were then exposed to near infra-red light (680 nm) at 40 J/cm^2 for 2 minutes. 24 hours after light exposure cell death was assessed by Propidium iodide (PI) staining (Invitrogen #P3566) and cells were imaged with an epifluorescent microscope.

[3] = system: IL31 receptor expressing cells; assay: In-vivo photo-ablation of skin, TUNEL assay; design: species or system mouse; conditions: IL31RA^−/− mice; injection and near infrared light
[4] = system: IL31 evoked scratching behavior; assay: Scratching during three days of IL31^SNAP-IR700 injection and illumination; conditions: injected three consecutive days and skin illuminated
[5] = after photoablation with near-IR light
[6] = prevention: injection and near IR illumination 3 days prior to Calcipotriol
[7] = rescue: subcutaneous injection and near IR light after 7 days Calcipotriol
[8] = topical application in water-in-oil micro-emulsion, near IR light

B1: IL31^SNAP-Surface549: IL31^SNAP labelled in vitro with BG-Surface549 (conjugate)
chain: TCSLSFGAPISKEDLRTTIDLLKQESQDLYNNYSIKQASGMSADESIQLPCFSLDREALTNISVIIAHLEKVKVLSENTVDTSWVIRWLTNISCFNPLNLNISVPGNTDESYDCKVFVLTVLKQFSNCMAELQAKDNTTC
modifications: left off: small tags and cut ends
fluorescent signal in cells in skin sections (IL31 Receptor A (IL31RA)): fluorescent signal was observed

B2: IL31^K138A-SNAP-IR700 (conjugate)
chain: TCSLSFGAPISKEDLRTTIDLLKQESQDLYNNYSIKQASGMSADESIQLPCFSLDREALTNISVIIAHLEKVKVLSENTVDTSWVIRWLTNISCFNPLNLNISVPGNTDESYDCAVFVLTVLKQFSNCMAELQAKDNTTC
modifications: left off: small tags and cut ends
LY344864 evoked itch [1, 5]: no significant effect
chloroquine evoked itch [1, 5]: no significant effect
histamine evoked itch [1, 5]: no significant effect
IL31-evoked scratching ([1]; injected but not illuminated (control)): no reduction in IL31-evoked scratching
IL31-induced scratching behavior ([1]; three consecutive days treatment with near-IR light): abolished
persistence of abolished IL31-induced scratching ([1]; with near-IR light, observation period): ≥ 8 week
thermal sensitivity (hot plate test) (thermal sensitivity): no difference in response properties
mechanical sensitivity (von Frey filaments) (mechanical sensitivity): no difference in response properties
effect of photo-ablation on other cell types (IL31RA expressing cells): does not affect other cell types such as keratinocytes or epidermal Langerhans cells
development of dermatitis-like symptoms ([2]; prevention: identical experiments in the absence of near IR illumination): normal development of dermatitis-like symptoms
development of atopic dermatitis-like indicators [2, 6]: completely abolished the development of all indicators
scratching behavior [2, 6]: remained at baseline levels
skin appearance [2, 6]: skin appeared healthy and typical features of dermatitis such as redness and scaling were entirely absent
disease indicators of established dermatitis ([2]; rescue: after 7 days Calcipotriol, subcutaneous injection and near IR light three days, over the course of 1 week): rescue of all disease indicators
scratching behavior [2, 7]: returned to baseline levels
skin thickness, morphology and structure [2, 7]: became indistinguishable from healthy mice
reversal of dermatitis-like symptoms ([2]; rescue: without subsequent near IR illumination (control)): not evident
scratching behavior [2, 8]: return to baseline levels of scratching behavior
skin structure and histology [2, 8]: normalization of skin structure and histology
Calcipotriol provoked dermatitis-like symptoms ([2]; topical application in water-in-oil micro-emulsion, near IR light 20 minutes later): both prevented and reversed Calcipotriol provoked dermatitis-like symptoms

B3: IL31^SNAP-IR700: IL31^SNAP conjugated in vitro to benzylguanine modified IRDye®700DX phthalocyanine (conjugate)
chain: TCSLSFGAPISKEDLRTTIDLLKQESQDLYNNYSIKQASGMSADESIQLPCFSLDREALTNISVIIAHLEKVKVLSENTVDTSWVIRWLTNISCFNPLNLNISVPGNTDESYDCKVFVLTVLKQFSNCMAELQAKDNTTC
modifications: left off: small tags and cut ends
notes: IL31^SNAP conjugated in vitro to benzylguanine modified IRDye®700DX phthalocyanine
cell death after illumination (primary keratinocytes; IL31RA^−/− keratinocytes): not evident
cell death after illumination (primary keratinocytes; wild type keratinocytes): substantial cell death
TUNEL positive apoptotic cells in skin [3]: largely absent
scratching bouts [4]: progressive decrease in scratching bouts

From patent US20190184015A1, “IRRADIATION TREATMENT OF NEUROLOGICAL SENSATIONS BY PHOTOABLATION” (European Molecular Biology Laboratory, priority 2016, published 2019)
